Source: the supplement of paper PMC5998384

Tests used:
HeLa Kyoto [1] = assay: solubility in G1/S (NP-40 vs SDS abundance) (log2 ratio); higher = more soluble; conditions: cell cycle stage: G1/S
HeLa Kyoto [2] = assay: thermal stability score vs G1/S (z-score of summed log2 fold changes over temperatures); higher = more thermally stable than in G1/S
HeLa Kyoto [3] = assay: solubility change mitosis vs G1/S (difference of NP-40 vs SDS log2 ratios) (log2 ratio difference); higher = more soluble in mitosis
HeLa Kyoto [4] = assay: melting temperature (median over replicates), in situ; higher = more thermally stable
[5] = cell cycle stage: early G1 (4.5 h after nocodazole release)
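For melting temperature (median over replicates), in situ in this document: HeLa Kyoto cells synchronized by double thymidine or nocodazole block, proteins quantified by TMT10plex mass spectrometry, three independent biological replicates.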
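For solubility change mitosis vs G1/S (difference of NP-40 vs SDS log2 ratios) in this document: synchronized HeLa Kyoto cells (double thymidine block for G1/S, nocodazole release for mitosis), protein amounts in NP-40 versus SDS lysates quantified by mass spectrometry, three biological replicates.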
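For solubility in G1/S (NP-40 vs SDS abundance) in this document: HeLa Kyoto cells arrested at G1/S by double thymidine block, proteins quantified by TMT10plex mass spectrometry in mild NP-40 versus SDS extracts, three biological replicates.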
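For thermal stability score vs G1/S (z-score of summed log2 fold changes over temperatures) in this document: synchronized HeLa Kyoto cells, proteins quantified by TMT10plex mass spectrometry, three biological replicates, mitosis taken 0.5 h after nocodazole release, G1/S directly after double thymidine block.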

MDPQRSPLLEVKGNIELKRPLIKAPSQLPLSGSRLKRRPDQMEDGLEPEKKRTRGLGATTKITTSHPRVPSLTTVPQTQGQTTAQKVSKKTGPRCSTAIATGLKNQKPVPAVPVQKSGTSGVPPMAGGKKPSKRPAWDLKGQLCDLNAELKRCRERTQTLDQENQQLQDQLRDAQQQVKALGTERTTLEGHLAKVQAQAEQGQQELKNLRACVLELEERLSTQEGLVQELQKKQVELQEERRGLMSQLEEKERRLQTSEAALSSSQAEVASLRQETVAQAALLTEREERLHGLEMERRRLHNQLQELKGNIRVFCRVRPVLPGEPTPPPGLLLFPSGPGGPSDPPTRLSLSRSDERRGTLSGAPAPPTRHDFSFDRVFPPGSGQDEVFEEIAMLVQSALDGYPVCIFAYGQTGSGKTFTMEGGPGGDPQLEGLIPRALRHLFSVAQELSGQGWTYSFVASYVEIYNETVRDLLATGTRKGQGGECEIRRAGPGSEELTVTNARYVPVSCEKEVDALLHLARQNRAVARTAQNERSSRSHSVFQLQISGEHSSRGLQCGAPLSLVDLAGSERLDPGLALGPGERERLRETQAINSSLSTLGLVIMALSNKESHVPYRNSKLTYLLQNSLGGSAKMLMFVNISPLEENVSESLNSLRFASKVNQCVIGTAQANRK [KIFC1]
solubility in G1/S (log2) (HeLa Kyoto [1]): 0.0107 | thermal stability score (HeLa Kyoto [2]; [5]): 3.16 | thermal stability score (HeLa Kyoto [2]; cell cycle stage: mitosis): 4.4 | solubility change mitosis (log2) (HeLa Kyoto [3]): 0.12 | melting temperature (HeLa Kyoto [4]; cell cycle stage: G1/S): 47.4 °C | melting temperature (HeLa Kyoto [4]; cell cycle stage: mitosis): 48.8 °C

MAAVAALQLGLRAAGLGRAPASAAWRSVLRVSPRPGVAWRPSRCGSSAAEASATKAEDDSFLQWVLLLIPVTAFGLGTWQVQRRKWKLNLIAELESRVLAEPVPLPADPMELKNLEYRPVKVRGCFDHSKELYMMPRTMVDPVREAREGGLISSSTQSGAYVVTPFHCTDLGVTILVNRGFVPRKKVNPETRQKGQIEGEVDLIGMVRLTETRQPFVPENNPERNHWHYRDLEAMARITGAEPIFIDANFQSTVPGGPIGGQTRVTLRNEHLQYIVTWYGLSAATSYLWFKKFLRGTPGV [SURF1]
solubility in G1/S (log2) (HeLa Kyoto [1]): 0.298 | thermal stability score (HeLa Kyoto [2]; [5]): -0.638 | thermal stability score (HeLa Kyoto [2]; cell cycle stage: mitosis): -0.542 | solubility change mitosis (log2) (HeLa Kyoto [3]): -0.105 | melting temperature (HeLa Kyoto [4]; cell cycle stage: G1/S): 52.2 °C | melting temperature (HeLa Kyoto [4]; cell cycle stage: mitosis): 52.2 °C

MWSGRSSFTSLVVGVFVVYVVHTCWVMYGIVYTRPCSGDANCIQPYLARRPKLQLSVYTTTRSHLGAENNIDLVLNVEDFDVESKFERTVNVSVPKKTRNNGTLYAYIFLHHAGVLPWHDGKQVHLVSPLTTYMVPKPEEINLLTGESDTQQIEAEKKPTSALDEPVSHWRPRLALNVMADNFVFDGSSLPADVHRYMKMIQLGKTVHYLPILFIDQLSNRVKDLMVINRSTTELPLTVSYDKVSLGRLRFWIHMQDAVYSLQQFGFSEKDADEVKGIFVDTNLYFLALTFFVAAFHLLFDFLAFKNDISFWKKKKSMIGMSTKAVLWRCFSTVVIFLFLLDEQTSLLVLVPAGVGAAIELWKVKKALKMTIFWRGLMPEFQFGTYSESERKTEEYDTQAMKYLSYLLYPLCVGGAVYSLLNIKYKSWYSWLINSFVNGVYAFGFLFMLPQLFVNYKLKSVAHLPWKAFTYKAFNTFIDDVFAFIITMPTSHRLACFRDDVVFLVYLYQRWLYPVDKRRVNEFGESYEEKATRAPHTD [CLPTM1L]
solubility in G1/S (log2) (HeLa Kyoto [1]): -0.0724 | thermal stability score (HeLa Kyoto [2]; [5]): -1.1 | thermal stability score (HeLa Kyoto [2]; cell cycle stage: mitosis): -1.25 | solubility change mitosis (log2) (HeLa Kyoto [3]): -0.226 | melting temperature (HeLa Kyoto [4]; cell cycle stage: G1/S): 52.8 °C | melting temperature (HeLa Kyoto [4]; cell cycle stage: mitosis): 53.2 °C

MAEPVSPLKHFVLAKKAITAIFDQLLEFVTEGSHFVEATYKNPELDRIATEDDLVEMQGYKDKLSIIGEVLSRRHMKVAFFGRTSSGKSSVINAMLWDKVLPSGIGHITNCFLSVEGTDGDKAYLMTEGSDEKKSVKTVNQLAHALHMDKDLKAGCLVRVFWPKAKCALLRDDLVLVDSPGTDVTTELDSWIDKFCLDADVFVLVANSESTLMNTEKHFFHKVNERLSKPNIFILNNRWDASASEPEYMEDVRRQHMERCLHFLVEELKVVNALEAQNRIFFVSAKEVLSARKQKAQGMPESGVALAEGFHARLQEFQNFEQIFEECISQSAVKTKFEQHTIRAKQILATVKNIMDSVNLAAEDKRHYSVEEREDQIDRLDFIRNQMNLLTLDVKKKIKEVTEEVANKVSCAMTDEICRLSVLVDEFCSEFHPNPDVLKIYKSELNKHIEDGMGRNLADRCTDEVNALVLQTQQEIIENLKPLLPAGIQDKLHTLIPCKKFDLSYNLNYHKLCSDFQEDIVFRFSLGWSSLVHRFLGPRNAQRVLLGLSEPIFQLPRSLASTPTAPTTPATPDNASQEELMITLVTGLASVTSRTSMGIIIVGGVIWKTIGWKLLSVSLTMYGALYLYERLSWTTHAKERAFKQQFVNYATEKLRMIVSSTSANCSHQVKQQIATTFARLCQQVDITQKQLEEEIARLPKEIDQLEKIQNNSKLLRNKAVQLENELENFTKQFLPSSNEES [MFN1]
solubility in G1/S (log2) (HeLa Kyoto [1]): -0.168 | thermal stability score (HeLa Kyoto [2]; [5]): -0.212 | thermal stability score (HeLa Kyoto [2]; cell cycle stage: mitosis): -0.832 | solubility change mitosis (log2) (HeLa Kyoto [3]): -0.0897 | melting temperature (HeLa Kyoto [4]; cell cycle stage: G1/S): 52 °C | melting temperature (HeLa Kyoto [4]; cell cycle stage: mitosis): 51.3 °C
